Results published in article PMC7042235.

Biological target: microtubules (polymerized porcine tubulin) (porcine) (UniProt P02550)
Assay: co-sedimentation; purified MTBDs (1-32 uM) mixed with 5 uM paclitaxel-stabilised porcine MTs; 100 mM PIPES pH 6.8, 50 mM NaCl, 2 mM MgCl2, 1 mM EGTA; 210,000 x g, 25 °C, 10 min; pellets on SDS-PAGE, densitometry, one-site curve fitting

## MTBD-High, MTBD(I3101C/V3222C) (from UniProt P36022 3096-3232) (domain or fragment)
  Kd: 4.8 µM
